Experimental data from patent publication US7238491, “Pregnane X receptor method” (SmithKline Beecham Corporation).

How the values were obtained:
mPXR1/hRXR heterodimer [1] = biological target: T1, mPXR1/hRXR heterodimer (Mus musculus / Homo sapiens, UniProt O54915;P19793 O54915:1-431,P19793:1-462); assay: competition; same profile as hPXR/RXR; competes with IR6 probe; conditions: tags: none; TNT rabbit reticulocyte lysate
Procedure: (§1) Band Shift Assays hPXR, mPXR1, and hRXR were synthesized in vitro using the TNT rabbit reticulocyte lysate coupled in vitro transcription/translation system (Promega) according to the manufacturer's instructions. Gel mobility shift assays (20 µl) contained 10 mM Tris (pH 8.0), 40 mM KCl, 0.05% NP-40, 6% glycerol, 1 mM DTT, 0.2 µg of poly(dI-dC) and 2.5 µl each of in vitro synthesized PXR and RXR proteins. Competitor oligonucleotides were included at a 10-fold or 50-fold excess. After a 10 min incubation on ice, 10 ng of [^32P]-labeled oligonucleotide was added and the incubation continued for an additional 10 min. DNA-protein complexes were resolved on a 4% polyacrylamide gel in 0.5×TBE (1×TBE=90 mM Tris, 90 mM boric acid, 2 mM EDTA). Gels were dried and subjected to autoradiography at –70° C. The following oligonucleotides were used as either radiolabeled probes or competitors (sense strand is shown):
(§2) In order to determine whether hPXR interacted directly with the CYP3A4 IR6 response element, band shift assays were performed.

[2] = biological target: T2, hPXR/hRXR heterodimer (RXR isoform not stated) (Homo sapiens, UniProt O75469;P19793 O75469:1-434,P19793:1-462); assay: competition; efficient competitor of IR6 probe at 10- or 50-fold excess in EMSA; conditions: tags: none; TNT rabbit reticulocyte lysate
Procedure: as §1, §2

mPXR1/hRXR heterodimer [3] = biological target: T1, mPXR1/hRXR heterodimer; assay: competition; same profile as hPXR/RXR; little or no competition; conditions: tags: none; TNT rabbit reticulocyte lysate
Procedure: as §1, §2

[4] = biological target: T2, hPXR/hRXR heterodimer (RXR isoform not …); assay: competition; little or no competition at 10- or 50-fold excess in EMSA; conditions: tags: none; TNT rabbit reticulocyte lysate
Procedure: as §1, §2

hRXR = hRXR (Homo sapiens, UniProt P19793 P19793:1-462); assay: EMSA; RXR alone without PXR; conditions: tags: none; TNT rabbit reticulocyte lysate; label: 32P (probe)
Procedure: as §1, §2

[5] = biological target: T2, hPXR/hRXR heterodimer (RXR isoform not …); assay: EMSA; 10 mM Tris pH 8.0, 40 mM KCl, 0.05% NP-40, 6% glycerol, 1 mM DTT, poly(dI-dC), on ice; self-competed by unlabeled IR6; conditions: tags: none; TNT rabbit reticulocyte lysate; label: 32P (probe)
Procedure: as §1, §2

mPXR1/hRXR heterodimer [6] = biological target: T1, mPXR1/hRXR heterodimer; assay: EMSA; same binding profile as hPXR/RXR; conditions: tags: none; TNT rabbit reticulocyte lysate; label: 32P (probe)
Procedure: as §1, §2

T1 sequence (O54915 whole entry, chain 1 of 2): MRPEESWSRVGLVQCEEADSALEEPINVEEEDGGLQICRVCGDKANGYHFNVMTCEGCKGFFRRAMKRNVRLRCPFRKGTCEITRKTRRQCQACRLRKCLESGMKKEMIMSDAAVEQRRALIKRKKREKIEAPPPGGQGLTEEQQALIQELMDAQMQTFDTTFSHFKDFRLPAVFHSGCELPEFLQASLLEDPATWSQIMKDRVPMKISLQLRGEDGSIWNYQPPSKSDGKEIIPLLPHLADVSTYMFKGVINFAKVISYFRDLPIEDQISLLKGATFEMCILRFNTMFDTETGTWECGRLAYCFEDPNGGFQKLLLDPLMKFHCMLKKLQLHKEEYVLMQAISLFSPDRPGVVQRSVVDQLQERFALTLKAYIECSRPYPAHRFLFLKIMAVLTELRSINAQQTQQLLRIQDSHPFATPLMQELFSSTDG
T1 sequence (P19793 whole entry, chain 2 of 2): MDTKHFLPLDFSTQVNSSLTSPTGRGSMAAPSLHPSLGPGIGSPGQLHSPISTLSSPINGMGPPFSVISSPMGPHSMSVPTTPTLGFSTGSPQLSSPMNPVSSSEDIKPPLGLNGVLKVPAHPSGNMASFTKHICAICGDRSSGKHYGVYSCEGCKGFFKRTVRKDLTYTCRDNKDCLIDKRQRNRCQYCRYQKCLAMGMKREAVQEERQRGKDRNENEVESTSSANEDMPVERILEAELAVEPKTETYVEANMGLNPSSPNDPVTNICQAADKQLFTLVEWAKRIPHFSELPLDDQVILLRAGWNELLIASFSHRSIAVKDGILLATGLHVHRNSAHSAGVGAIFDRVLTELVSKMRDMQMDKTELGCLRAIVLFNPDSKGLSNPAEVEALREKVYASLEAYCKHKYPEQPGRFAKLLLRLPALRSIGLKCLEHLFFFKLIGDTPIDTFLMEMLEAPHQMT
T2 sequence (O75469 whole entry, chain 1 of 2, canonical isoform): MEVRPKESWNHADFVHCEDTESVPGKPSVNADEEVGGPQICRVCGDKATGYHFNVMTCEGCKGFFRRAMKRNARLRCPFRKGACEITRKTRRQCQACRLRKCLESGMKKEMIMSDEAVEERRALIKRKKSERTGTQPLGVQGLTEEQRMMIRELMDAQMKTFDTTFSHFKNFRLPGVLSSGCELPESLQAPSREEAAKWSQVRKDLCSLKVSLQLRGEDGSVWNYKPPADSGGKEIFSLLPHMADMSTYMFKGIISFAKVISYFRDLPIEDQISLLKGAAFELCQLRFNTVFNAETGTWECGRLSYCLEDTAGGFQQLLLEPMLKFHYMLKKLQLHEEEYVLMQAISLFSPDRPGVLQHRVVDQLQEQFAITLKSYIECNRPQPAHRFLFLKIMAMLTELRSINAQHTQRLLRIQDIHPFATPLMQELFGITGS
T2 sequence (P19793 whole entry, chain 2 of 2, canonical isoform): as the sequence (P19793 whole entry, chain 2 of 2) above
Sequence of hRXR (P19793 whole entry, one chain of several): as the sequence (P19793 whole entry, chain 2 of 2) above

B1: CYP3A1 DR3 PXRE (dsDNA)
DNA 1: GATGCAGACAGTTCATGAAGTTCATCTAGATC
DNA 2: GATCTAGATGAACTTCATGAACTGTCTGCATC
binding result (mPXR1/hRXR heterodimer [1]): binds
binding result [2]: binds

B2: CYP3A4 IR6 m1 (dsDNA)
DNA 1: GATCAATATGTTCTCAAAGGAGAACAGTG
DNA 2: CACTGTTCTCCTTTGAGAACATATTGATC
binding result (mPXR1/hRXR heterodimer [3]): no binding
binding result [4]: no binding

B3: CYP3A4 IR6 PXRE (dsDNA)
DNA 1: GATCAATATGAACTCAAAGGAGGTCAGTG
DNA 2: CACTGACCTCCTTTGAGTTCATATTGATC
binding result (hRXR): no binding
binding result [5]: binds
binding result (mPXR1/hRXR heterodimer [6]): binds

B4: CYP3A4 IR6 m2 (dsDNA)
DNA 1: GATCAATAACAACTCAAAGGAGGTCAGTG
DNA 2: CACTGACCTCCTTTGAGTTGTTATTGATC
binding result (mPXR1/hRXR heterodimer [3]): no binding
binding result [4]: no binding
